Experimental findings from article doi:10.1101/2022.06.14.496144 are described below.

Usually stoichiometry N stands for the number of molecules, sites or subunits per partner or assembly.

The target of test [1] is GlOCPX E25C mutant (Gloeobacter kilaueensis JS1). The test is described as follows: SEC. (In general: SEC sorts molecules by how far they enter the pores of the column.)
Test [2] deals with Gloeobacter kilaueensis JS1 Orange Carotenoid Protein clade X (GlOCPX), wild type (Gloeobacter kilaueensis JS1). The experiment in a line: SEC.
Test [3] has the same target. The test is described as follows: SEC-MALS.

As to GlOCPX E25C mutant (natural protein), in test [1], the dimer/monomer ratio turned out to be 25%.
Turning to “Gloeobacter kilaueensis JS1 Orange Carotenoid Protein clade X (GlOCPX), wild type (natural protein)”, the dimer/monomer ratio in test [2] came out at 5%. Moreover, the stoichiometry N in test [3] was found to be 2.
